In PMC12439037 (RSC Chemical Biology, 2025):
Numbering of substitutions follows the chain as printed. Ends that are not written are not given here. * marks the point of attachment. Myristoyl = CCCCCCCCCCCCCC(=O)*

Assays:
Assay in all cases: crystal structure
[1] = biological target: T1, human SIRT2 (residues 50–356) (human, UniProt Q8IXJ6 50-356)
T1 sequence (looked up): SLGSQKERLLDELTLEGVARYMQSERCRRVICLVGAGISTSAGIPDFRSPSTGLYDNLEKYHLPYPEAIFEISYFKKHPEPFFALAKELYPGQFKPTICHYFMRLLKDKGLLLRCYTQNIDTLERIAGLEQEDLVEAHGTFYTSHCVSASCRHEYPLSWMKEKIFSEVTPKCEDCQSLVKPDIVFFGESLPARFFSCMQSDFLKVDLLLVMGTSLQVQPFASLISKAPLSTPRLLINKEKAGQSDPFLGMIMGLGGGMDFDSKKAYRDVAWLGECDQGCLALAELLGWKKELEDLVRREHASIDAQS

[2] = biological target: T2, SIRT2^F96A (human SIRT2 residues 50–356, F96A) (human, UniProt Q8IXJ6 50-356, F96A)
T2 sequence (looked up): T1 sequence (looked up) with F47A

[3] = biological target: T3, SIRT2^H187A (human SIRT2 residues 50–356, H187A) (human, UniProt Q8IXJ6 50-356, H187A)
T3 sequence (looked up): T1 sequence (looked up) with H138A

Measured: binding result

B1: H3K18myr peptide (APRKmyrQLA) (peptide)
peptide: APRK(Myristoyl)QLA
binds: all assays above
